Holding throughout (test): cell_activity; PAM 5'-ATTG-3'
What all share (conditions): tags: pcDNA3.1 expression

Data set [1] concerns the target T1, variant nuclease T338G combination (P14R, D32R, I61R, E311R, T338G).
T1 chain: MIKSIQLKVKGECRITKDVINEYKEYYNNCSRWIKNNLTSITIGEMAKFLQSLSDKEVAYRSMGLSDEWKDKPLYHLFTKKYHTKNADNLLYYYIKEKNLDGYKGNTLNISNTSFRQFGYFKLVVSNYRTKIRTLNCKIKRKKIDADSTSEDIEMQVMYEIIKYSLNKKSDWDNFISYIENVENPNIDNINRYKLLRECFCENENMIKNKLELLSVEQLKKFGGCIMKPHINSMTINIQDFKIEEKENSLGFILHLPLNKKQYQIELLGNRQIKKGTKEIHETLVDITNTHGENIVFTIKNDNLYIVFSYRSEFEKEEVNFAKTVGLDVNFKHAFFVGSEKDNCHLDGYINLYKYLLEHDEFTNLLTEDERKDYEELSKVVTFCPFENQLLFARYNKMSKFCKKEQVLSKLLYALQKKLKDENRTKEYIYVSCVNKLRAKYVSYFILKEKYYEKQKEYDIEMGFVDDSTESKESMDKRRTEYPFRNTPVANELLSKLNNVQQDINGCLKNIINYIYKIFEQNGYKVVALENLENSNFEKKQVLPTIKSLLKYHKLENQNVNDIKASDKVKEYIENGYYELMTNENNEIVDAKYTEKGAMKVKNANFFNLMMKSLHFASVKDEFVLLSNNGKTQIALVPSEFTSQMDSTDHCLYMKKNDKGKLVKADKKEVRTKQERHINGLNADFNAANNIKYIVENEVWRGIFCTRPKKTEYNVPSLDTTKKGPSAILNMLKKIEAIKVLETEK

In data set [2] the target is T2, variant nuclease D590G combination (P14R, D32R, I61R, E311R, D590G).
T2 chain: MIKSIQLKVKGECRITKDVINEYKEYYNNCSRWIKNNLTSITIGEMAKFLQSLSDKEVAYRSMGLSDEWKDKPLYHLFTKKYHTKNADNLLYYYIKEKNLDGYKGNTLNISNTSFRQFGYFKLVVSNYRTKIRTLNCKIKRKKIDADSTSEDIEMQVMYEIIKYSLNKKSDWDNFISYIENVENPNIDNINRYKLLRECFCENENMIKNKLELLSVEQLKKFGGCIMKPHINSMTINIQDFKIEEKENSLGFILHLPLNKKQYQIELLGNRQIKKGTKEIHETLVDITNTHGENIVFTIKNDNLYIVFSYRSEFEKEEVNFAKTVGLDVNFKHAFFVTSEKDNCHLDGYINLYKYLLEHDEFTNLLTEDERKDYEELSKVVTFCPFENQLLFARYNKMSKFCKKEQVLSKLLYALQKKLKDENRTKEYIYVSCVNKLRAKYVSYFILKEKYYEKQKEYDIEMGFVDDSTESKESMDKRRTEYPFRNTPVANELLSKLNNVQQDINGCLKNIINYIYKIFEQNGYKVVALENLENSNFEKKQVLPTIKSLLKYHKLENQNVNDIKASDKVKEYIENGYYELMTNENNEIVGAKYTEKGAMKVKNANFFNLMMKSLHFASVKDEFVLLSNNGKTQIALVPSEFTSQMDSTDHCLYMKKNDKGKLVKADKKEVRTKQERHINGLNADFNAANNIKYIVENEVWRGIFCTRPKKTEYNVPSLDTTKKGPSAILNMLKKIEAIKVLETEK

The target in data set [3] is T3, variant nuclease E154G combination (P14R, D32R, I61R, E311R, E154G).
T3 chain: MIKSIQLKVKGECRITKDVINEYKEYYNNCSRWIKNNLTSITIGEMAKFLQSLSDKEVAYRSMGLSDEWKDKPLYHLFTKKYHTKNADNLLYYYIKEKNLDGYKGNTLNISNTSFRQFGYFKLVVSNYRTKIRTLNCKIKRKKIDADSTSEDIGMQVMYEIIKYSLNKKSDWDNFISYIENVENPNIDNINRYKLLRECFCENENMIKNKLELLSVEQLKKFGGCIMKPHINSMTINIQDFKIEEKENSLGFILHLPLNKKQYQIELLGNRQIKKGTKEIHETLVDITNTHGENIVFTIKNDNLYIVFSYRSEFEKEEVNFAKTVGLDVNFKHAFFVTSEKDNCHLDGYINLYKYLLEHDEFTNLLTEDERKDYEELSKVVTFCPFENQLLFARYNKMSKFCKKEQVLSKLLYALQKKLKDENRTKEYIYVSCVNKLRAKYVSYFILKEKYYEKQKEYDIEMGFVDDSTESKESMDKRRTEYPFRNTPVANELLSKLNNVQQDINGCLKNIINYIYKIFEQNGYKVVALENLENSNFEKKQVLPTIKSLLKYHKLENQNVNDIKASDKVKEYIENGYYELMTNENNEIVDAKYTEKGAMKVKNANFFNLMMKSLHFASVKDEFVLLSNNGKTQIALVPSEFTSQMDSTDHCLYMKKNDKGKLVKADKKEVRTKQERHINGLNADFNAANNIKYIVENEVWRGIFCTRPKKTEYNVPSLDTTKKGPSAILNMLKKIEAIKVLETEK

B1: EMX1 crRNA ; EMX1 target (ssRNA ; dsDNA)
RNA: CUUGUUGUAUAUGUCCUUUUAUAGGUAUUAAACAACCCGCCGCUUCCUGAGCCAUC
DNA 1: CCGCCGCTTCCTGAGCCATC
DNA 2: GATGGCTCAGGAAGCGGCGG
As for B1, the indel editing activity in data set [1] was 7.58 fold of WT; in data set [2] it was 7.43 fold of WT; in data set [3] it was 6.04 fold of WT.

Source of the values: US20240035010, “COMPOSITIONS COMPRISING A VARIANT POLYPEPTIDE AND USES THEREOF” (Arbor Biotechnologies, Inc., published 2024).
